We go through 6 substances from patent US20140315826A1, “POLYMERIC CONJUGATES OF C-1 INHIBITORS” (Belrose Pharma, Inc., priority 2012, published 2014).

The target in data set [1] is T1, C1 esterase (UniProt P09871).
T1 sequence (looked up): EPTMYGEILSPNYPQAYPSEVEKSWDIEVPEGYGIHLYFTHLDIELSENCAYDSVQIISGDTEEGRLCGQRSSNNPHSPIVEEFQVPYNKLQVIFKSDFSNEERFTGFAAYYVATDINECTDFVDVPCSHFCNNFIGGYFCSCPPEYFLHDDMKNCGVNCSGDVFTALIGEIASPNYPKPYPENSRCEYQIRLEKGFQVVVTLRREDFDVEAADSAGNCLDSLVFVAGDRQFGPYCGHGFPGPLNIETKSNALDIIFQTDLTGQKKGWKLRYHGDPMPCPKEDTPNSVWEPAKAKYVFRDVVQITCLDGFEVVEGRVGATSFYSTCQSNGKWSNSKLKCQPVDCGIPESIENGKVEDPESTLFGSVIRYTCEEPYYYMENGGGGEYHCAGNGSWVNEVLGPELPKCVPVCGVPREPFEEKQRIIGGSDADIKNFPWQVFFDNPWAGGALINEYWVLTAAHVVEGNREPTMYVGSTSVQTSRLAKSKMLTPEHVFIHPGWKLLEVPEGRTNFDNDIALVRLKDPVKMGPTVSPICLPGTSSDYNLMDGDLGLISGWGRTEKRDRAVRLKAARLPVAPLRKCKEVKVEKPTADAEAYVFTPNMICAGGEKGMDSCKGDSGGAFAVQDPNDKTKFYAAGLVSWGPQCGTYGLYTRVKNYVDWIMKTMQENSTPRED
Put plainly: cell-based or functional assay.

In data set [2] the target is T2, kallikrein (Homo sapiens, UniProt P03952). Put plainly: cell-based or functional assay.
Target sequence in this assay (P03952 20-638 limits assumed): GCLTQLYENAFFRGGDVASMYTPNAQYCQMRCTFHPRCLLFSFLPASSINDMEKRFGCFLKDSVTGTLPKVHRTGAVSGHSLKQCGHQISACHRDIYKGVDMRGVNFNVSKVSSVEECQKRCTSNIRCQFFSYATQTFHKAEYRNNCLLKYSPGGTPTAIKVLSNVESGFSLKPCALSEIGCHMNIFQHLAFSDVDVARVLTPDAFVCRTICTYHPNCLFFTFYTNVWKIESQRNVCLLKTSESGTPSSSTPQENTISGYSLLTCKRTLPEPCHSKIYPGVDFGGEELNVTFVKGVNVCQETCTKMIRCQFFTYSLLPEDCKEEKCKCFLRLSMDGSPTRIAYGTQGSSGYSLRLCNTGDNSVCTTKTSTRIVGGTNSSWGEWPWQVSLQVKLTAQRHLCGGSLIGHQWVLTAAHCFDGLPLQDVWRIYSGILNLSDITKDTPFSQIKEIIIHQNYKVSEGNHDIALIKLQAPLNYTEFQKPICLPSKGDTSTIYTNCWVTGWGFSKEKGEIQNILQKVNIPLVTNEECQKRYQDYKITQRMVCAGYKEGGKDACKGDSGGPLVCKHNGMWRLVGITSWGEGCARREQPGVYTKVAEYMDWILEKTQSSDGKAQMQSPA
Data set [3] has as its target T3, C1 esterase (Homo sapiens, UniProt P09871).
T3 sequence (P09871 16-688): T1 sequence (looked up)
Put plainly: C1 INH activity assay: inhibition of C1 esterase activity. In kind it is biochemical. As to conditions: for Activity of C1 Esterase inhibition U/mg: 96-well plate, 37° C., kinetic substrate cleavage. The protocol:
(§1) C1 INH activity was measured by the inhibition of C1 esterase and kallikrein activities. For the inhibition of C1 esterase activity, samples, standards, and controls were added to 96-well plate, and then C1-esterase was added. After 10 min incubation at 37° C., substrate of C1-eserasse was added. C1-esterase activity for cleavage of the substrate was monitored at 37° C. for 4 minutes kinetically. The higher C1 INH activity results in the lower C1 esterase activity or the lower cleavage rate of substrate. For the inhibition of kallikrein activity, EC50 was used to evaluate PEG-C1 INH activity. Lower EC50 value indicates higher activity of kallikrein inhibition.

Data set [4] concerns the target T2, kallikrein. Put plainly: C1 INH activity assay: inhibition of kallikrein activity. The format is biochemical. The note with it: lower EC50 = higher activity. The procedure: as §1
Target sequence in this assay (P03952 20-638): as the sequence (P03952 20-638 limits assumed) above
Data set [5] can be described thus: Conjugate stability on SDS gel (heating, reduction, acid treatment). The format is physicochemical. The protocol: The concentration of PEGylated C1 INH was determined by UV at 280 nm (extinction coefficient of C1 INH was 0.39 mL/mg·cm). Sample at 5 μg or 10 μg was loaded into the gel without sample reduction and heating for electrophoresis. In a separate experiment, the samples were heated at 70° C. for 7 minutes in the presence or absence of 75 mM β-mercaptoethanol in gel buffer. There was no evidence of conjugate breakdown under such conditions. […] The protein bands were visualized after simple blue stain. The density of the image was obtained on Molecular Dynamics. […] There were eight PEG (20 or 30k) strands attached per C1 INH as analyzed SEC-MALS.

Sequence of PEG-20k-Glycan-C1 INH (60 mg scale) (P05155 23-500 limits assumed): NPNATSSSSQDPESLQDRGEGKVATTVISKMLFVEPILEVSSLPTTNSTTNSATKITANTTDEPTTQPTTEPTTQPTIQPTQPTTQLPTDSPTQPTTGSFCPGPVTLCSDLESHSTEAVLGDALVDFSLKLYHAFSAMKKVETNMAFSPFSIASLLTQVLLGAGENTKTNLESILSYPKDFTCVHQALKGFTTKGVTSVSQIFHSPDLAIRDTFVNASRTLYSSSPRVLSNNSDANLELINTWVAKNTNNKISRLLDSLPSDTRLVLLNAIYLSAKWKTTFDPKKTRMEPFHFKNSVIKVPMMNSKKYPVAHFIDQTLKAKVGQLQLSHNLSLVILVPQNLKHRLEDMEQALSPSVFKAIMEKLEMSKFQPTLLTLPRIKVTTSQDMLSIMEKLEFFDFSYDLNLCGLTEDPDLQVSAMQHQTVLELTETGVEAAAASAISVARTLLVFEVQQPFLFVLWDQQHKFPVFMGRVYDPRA
Sequence of C1 Esterase Inhibitor (C1 INH), native (P05155 23-500 limits assumed): as above
Sequence of PEG-20k-Glycan-C1 INH (5 mg scale) (P05155 23-500 limits assumed): as above

In the data set with C1 esterase [1], “C1 Esterase Inhibitor (C1 INH), native (from UniProt P05155 23-500)” came in with an Activity of C1 Esterase inhibition, % C1 INH activity of 100% and an Activity of C1 Esterase inhibition, U/mg of 7 U/mg. In addition, in the data set with kallikrein [2], the Activity of Kallikrein inhibition, % C1 INH activity came out at 100% and the Activity of Kallikrein inhibition, EC50 turned out to be 200 nM.

In the case of “C1 INH: C1 Esterase Inhibitor obtained from Athens Research & Technology, MW 73000 Da by MALDI; unmodified reference protein”, the “Activity of C1 Esterase inhibition U/mg” value with C1 esterase [3] amounted to 7.0 U/mg. In addition, the response in the data set with kallikrein [4] was half-maximal at 200 nM (EC50).

For “PEG-20k-Glycan-C1 INH (5 mg scale) (from UniProt P05155 23-500)”, in the data set with C1 esterase [1], the % C1 INH activity on C1 esterase inhibition (small scale) is 97%; the Activity of C1 Esterase inhibition, % C1 INH activity was determined as 94%; the Activity of C1 Esterase inhibition, U/mg is 6.6 U/mg.

Consider “PEG-20k-Glycan-C1 INH (5 mg scale): Same PEG-20k-hydrazide glycan conjugate of C1 INH prepared at 5 mg scale; PEG number pending”, for which, in the data set with C1 esterase [3], the “Activity of C1 Esterase inhibition U/mg” value was found to be 6.6 U/mg.

“PEG-20k-Glycan-C1 INH (60 mg scale) (from UniProt P05155 23-500)”: in the data set with C1 esterase [1], the Activity of C1 Esterase inhibition, % C1 INH activity was determined as 73% and the Activity of C1 Esterase inhibition, U/mg is 5.1 U/mg. For the same substance, in the data set with kallikrein [2], the Activity of Kallikrein inhibition, % C1 INH activity came to 67% and the Activity of Kallikrein inhibition, EC50 came out at 300 nM.

For the substance “PEG-20k-Glycan-C1 INH (60 mg scale): C1 INH oxidized with periodate at glycan and conjugated with PEG-hydrazide 20k; eight PEG strands per C1 INH”, the “Activity of C1 Esterase inhibition U/mg” value with C1 esterase [3] came to 5.1 U/mg. Besides, the “% C1 INH activity on C1 esterase inhibition, small scale” value in the data set with C1 esterase [3] (small scale batch, relative to native C1 INH) worked out at 97%. In addition, in the data set with kallikrein [4], a half-maximal response (EC50) required 300 nM. In data set [5] (0.1% TFA or sodium acetate, pH 4.7), the “Stability of conjugate under acidic conditions” value is “releasable”. Besides, the “Stability of conjugate to heating and reducing at neutral pH” value in data set [5] (70° C. for 7 minutes, with or without 75 mM β-mercaptoethanol, SDS gel) is given as “stable”.

As usually defined, the EC50 is the midpoint of the concentration-response curve. Read a high EC50 as a less potent agent.
